Assay results: US20230235058A1

How the values were obtained:
L48R (Mus musculus) = assay: flow cytometry, GFP-positive transfected HEK-293T cells, fluorochrome-conjugated antibody at 10 ug/ml, Geo-mean relative to wild type
[1] = target: human BTLA extracellular region / murine CD28 construct with K41E, on HEK-293T cells (human; mouse) (UniProt P31041); assay: as above
[2] = target: human BTLA extracellular region / murine CD28 construct with Y39R, on HEK-293T cells (human; mouse) (UniProt P31041); assay: as above
Chain of human BTLA extracellular region / murine CD28 construct with Y39R, on HEK-293T cells (human; mouse) (P31041 other isoform, or with tags, fused parts or gaps Y39R Y39R): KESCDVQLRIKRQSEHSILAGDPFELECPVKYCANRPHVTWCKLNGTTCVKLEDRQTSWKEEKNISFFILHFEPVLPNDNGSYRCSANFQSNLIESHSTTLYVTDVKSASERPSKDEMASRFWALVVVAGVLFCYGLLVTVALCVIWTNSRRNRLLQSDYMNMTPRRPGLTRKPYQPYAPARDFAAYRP

[3] = target: full length human BTLA expressed on cells (human) (UniProt Q7Z6A9); assay: cell-based or functional assay

Chain of human BTLA extracellular region / murine CD28 construct with K41E, on HEK-293T cells (human; mouse) (P31041 other isoform, or with tags, fused parts or gaps K41E K41E): as the sequence (P31041 other isoform, or with tags, fused parts or gaps Y39R Y39R) above, with R9Y, K11E counted along it

Row | Binder | binding as % of binding to wild-type BTLA (L48R (Mus musculus)) | binding as % of binding to wild-type BTLA [1] | binding as % of binding to wild-type BTLA [2] | inhibition of NFkB signal, IC50 [3] | maximal inhibition of NFkB signal [3]
1 | 11.5.1 (antibody, V domains shown) VH: EVQLQESGPSLVKPSQTLSLTCSVTGDSITSAYWNWIRKFPGNKLEYMGYISYSGSTYFNPSLKSRISITRNTSKNQYYLQLNSVTTEDTATYYCARSHYYGYYFDYWGHGTTLTVSS VL: DIVLTQSPASLAVSLGQRATISCRASETIDSYGDSLMHWYQQKAGQPPKLLIYRASNLESGIPARFSGSGSRTDFTLTINPVEADDVATYYCQQTDEDPYTFGGGTKLEIK | 145% | 1.8% | 0.76% | – | –
2 | 22B3 hIgG4PAA (antibody, from another filing, V domains shown) VH: QVQLVQSGAEVKKPGASVKVSCKASGFSLSSYGVSWVRQAPGQGLEWMGAISYDGITYYASWAKSRVTMTRDTSTSTVYMELSSLRSEDTAVYYCARGDYYDDYVYVYALDIWGQGTLVTVSS VL: EIVLTQSPGTLSLSPGERATLSCQASQSISTALAWYQQKPGQAPRLLIYAASTLASGIPDRFSGSGSGTDFTLTISRLEPEDFAVYYCQQGYSSSNLDNVFGGGTKVEIKR | – | – | – | 3.8 nM | 18%
3 | 2.8.6 (antibody, V domains shown) VH: QVQLKESGPGLVAPSQSLSITCTVSGFSLTTYGVHWVRQSPGKGLEWLGVMWPGGRTSYNPAPMSRLSISKDNSKSQVFLKMNSLQTDDTAMYYCVRGDYEYDYYAMDYWGQGTSVTVSS VL: QIVLSQSPAILSASPGEKVTMTCRASSSVSYMHWYQQKPGSSPKPWIYATSNLASGVPARFSGSGSGTSYSLTISRMEAEDAATYYCHQWSSNPYTFGGGTKLEIK | 102% | 91.4% | 60% | – | –
